Assay results reported in patent US8765444 (BOARD OF TRUSTEES OF THE UNIVERSITY OF ILLINOIS, dated 2014).

B1: FLAG-γ134.5 Δ72 (other)
chain: MARRRRHRGPRRPRPPGPTGAVPTAQSQVASDDDDDDDWPDSPPPEPAPEARPTAAAPRPRSPPPGAGPGGGANPSHPPSRPFRLPPRLALRLRVTAEHLARLRLRRAGGEGAPEPPATPATPATPATPATPATPATPATPATPATPARVRFSPHVRVRHLVVWASAARLARRGSWARERADRARFRRRVAEAEAVIGPCLGPEARARALARGAGPANSV
notes: Deletion 'encompassing amino acids 30 to 72'; the printed limits overlap with the neighbouring deletions, so the exact junction is uncertain
B2: FLAG-γ134.5 Δ30 (other)
chain: STPNSEPAVRSAPAAAPPPPPASGPPPSCSLLLRQWLHVPESASDDDDDDDWPDSPPPEPAPEARPTAAAPRPRSPPPGAGPGGGANPSHPPSRPFRLPPRLALRLRVTAEHLARLRLRRAGGEGAPEPPATPATPATPATPATPATPATPATPATPATPARVRFSPHVRVRHLVVWASAARLARRGSWARERADRARFRRRVAEAEAVIGPCLGPEARARALARGAGPANSV
notes: Deletion 'encompassing amino acids 1 to 30'
B3: FLAG-γ134.5 N159 (other)
chain: MARRRRHRGPRRPRPPGPTGAVPTAQSQVTSTPNSEPAVRSAPAAAPPPPPASGPPPSCSLLLRQWLHVPESASDDDDDDDWPDSPPPEPAPEARPTAAAPRPRSPPPGAGPGGGANPSHPPSRPFRLPPRLALRLRVTAEHLARLRLRRAGGEGAPE
notes: Carboxyl-terminal domain deleted; the exact last residue (158 or 159) is uncertain

target: T1, TBK1 (as used in Example 6; construct not named) (Homo sapiens (Human), UniProt Q9UHD2 1-729); assay: co-immunoprecipitation from transfected 293T cells
T1 construct: also called HA-TBK1 (constructed, probably the one used)
T1 sequence: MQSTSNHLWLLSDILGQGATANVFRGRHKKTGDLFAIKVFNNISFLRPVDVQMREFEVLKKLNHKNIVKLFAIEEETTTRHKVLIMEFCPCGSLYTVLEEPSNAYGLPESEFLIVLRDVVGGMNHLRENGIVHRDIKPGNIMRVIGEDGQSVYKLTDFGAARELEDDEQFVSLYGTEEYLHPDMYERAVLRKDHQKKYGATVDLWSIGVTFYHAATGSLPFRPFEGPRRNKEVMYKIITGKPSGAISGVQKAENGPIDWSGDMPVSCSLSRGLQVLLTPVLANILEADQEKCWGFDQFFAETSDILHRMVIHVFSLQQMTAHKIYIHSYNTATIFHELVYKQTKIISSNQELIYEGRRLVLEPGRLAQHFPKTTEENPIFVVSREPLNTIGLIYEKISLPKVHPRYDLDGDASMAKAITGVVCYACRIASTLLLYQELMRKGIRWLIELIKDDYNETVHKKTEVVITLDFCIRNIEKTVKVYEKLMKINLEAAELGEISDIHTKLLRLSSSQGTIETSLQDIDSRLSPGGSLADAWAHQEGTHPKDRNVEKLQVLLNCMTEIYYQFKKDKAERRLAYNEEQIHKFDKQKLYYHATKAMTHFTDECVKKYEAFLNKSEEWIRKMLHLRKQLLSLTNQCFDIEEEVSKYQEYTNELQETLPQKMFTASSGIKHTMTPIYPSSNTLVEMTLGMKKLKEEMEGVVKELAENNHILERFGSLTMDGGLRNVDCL

Binder	binding result
B1	binds
B2	binds
B3	binds
